# Results: the DeepSol protein solubility set
# Test: soluble on expression in E. coli; label from the status in PepcDB or PDB records
row,Sequence,soluble on expression in E. coli
1,MVEKPVVIKFGGTSVRYAFEEALELVAKLHENMKIIVVVSALAGVTDCLLRLAKGDKSALLEIDEIHEELSQELNVQLEHLIHQLKKTINSKSSFPSEKAFIDEIASFGERFSAKLFSEGLKILGITARPVDSKDVLFVKGEFGNAEVEFKKSAQGVDVLYRMLRRGIVPVVTGYYGNLNGFRATFGRGGSDYSATSIASLVNAKAVLIMSDVEGIYTADPKLVPPARLIHYISYKEAKTAAKLGMKVLHPRAIDPVEGKIPVILGKTRDLKFGTLISHESQGIPIVTHKLLENHAEISVVSVKTNIPLPYEVYEEGDLYFKIKTSKDQFLEVLRDVHRRVVENENLHSSHDGELWTWVLEHHHHHH,not soluble
2,MVEMAATGYPVLILKEGTQRTYGREALRANILAARVLAEMLKSSLGPRGLDKMLVDAFGDITVTNDGATIVKEMEIQHPAAKLLVEVAKAQDAEVGDGTTSVVVLAGALLEKAEKLLDENLHPTIIIEGYTKAMEEALRLVDEAAVPVEVEDDSVLRRIAETTLASKFVGTGPERDKIISMVIDAIRTVAEKRPDGGYEVDLDYVKIEKKKGGSLLDSKLVRGIVLDKEVVHPAMPKRVENAKILVLDAPLEVQKPELTTKIRVTDIEKLESFLEEETRMLRDMVEKIAATGANVVITQKGIDEVAQHFLAKKGILAVRRVKRSDIEKVAKATGAKIVTSLRDLKPEYLGYAELVEERKVGEDKMVFIEGAKNPKSVTILLRGANDMLLDEAERNIKDALHGLRNILREPKIVGGGGAVEVELALKLKEFARTVGGKQQLAIEAYAEALETIPTVLAESAGMDALEALLKLRSLHSQGYKFAGVNVLEGKIEEDMTKINVYEPVLVKKQVIKSASEAAISILKIDDVIAAAPPKKKEKKGKTGEEEEEEGGGSKFEF,soluble
3,MVEQIKDKLGRPIRDLRLSVTDRCNFRCDYCMPKEVFGDDFVFLPKNELLTFDEMARIAKVYAELGVKKIRITGGEPLMRRDLDVLIAKLNQIDGIEDIGLTTNGLLLKKHGQKLYDAGLRRINVSLDAIDDTLFQSINNRNIKATTILEQIDYATSIGLNVKVNVVIQKGINDDQIIPMLEYFKDKHIEIRFIEFMDVGNDNGWDFSKVVTKDEMLTMIEQHFEIDPVEPKYFGEVAKYYRHKDNGVQFGLITSVSQSFCSTCTRARLSSDGKFYGCLFATVDGFNVKAFIRSGVTDEELKEQFKALWQIRDDRYSDERTAQTVANRQRKKINMNYIGG,soluble
4,MVERIEDLNLPNAVIGRLIKEALPESASVSKEARAAIARAASVFAIFVTSSSTALAHKQNHKTITAKDILQTLTELDFESFVPSLTQDLEVYRKVVKEKKESKASKKDSNTAENANASATATAEEAPE,soluble
5,MVESLKHTAAAAIAKLIHNGHFNSKSYAFDQESSNEVYAQLLRLDPQWSYNIDLKLKGLSFILTKVNFENVEMGPQTFGLLTQHNLKSLVLGNQDEIPSLEHYMSRLFRTSQIDHLDLSGRSQFSTAWLKTTGQQLPLLRTLNVSGVKLLNPDFFQFCKSFPNLYSLDISNCGVTILTGISRLKNLRHLSLRSLIYESWYDIRELFALKLLNVLDLSMHSTHHARRNMQRFLDCKQVLPELRFLECSGNLMDEDMLEELLITHSHLHQLAIVDCDVKAPKSSPIRILSCTTFDSSITALKYYLNLKRRNEVQICFQELRLHVKRLHERKMQYDVTECVTLSLQSLEKLPCSLIMNFDIVEERLFTSRLSFEADFLAEIVLHNFHRLSRVHTRLICDILLNNVNRQLIRDLRAETMWNAIIYLFNMGVFVDKQKLKGIASHCAASLHNGDPIIEEQAMRILTSCVTGKTLELVLSITESKHDTTPICLGFLRAALHKEDEQSSRRVAEKILAATHNNEEECKRYIKHGAMNMLISAIDRFDSEPMHIVILGIIRNLVMMSPYDKVQQIFTCVQFRTFQILLRNWTSSDRAYLMLSIFALRLNHQDKNFECVFRKCADELLRKHFPYLLATEITVDVDIYFDRGIVQNILRTSEEVGLVLWALLTIKIYAQKSLWNSRSIRDSNFFYLIENPHIASEVVNVASENVRFLFHW,not soluble
6,MVEVHACSPGCRHHLGGAGWGDAPLVRLGYNKEARAKKFPYLKALLERPLVFDGAMGTELQKRDLTPEDYGGEAYFGCPEVLNRTRPEVVREIHLAYLEAGAEVIETNTFGALRHVLAEYGLEEAAEELAFLGARIAREAADPHGAFVAGALGPGTKLVSLGQISWDALYRAYKEAARGLLKGGVDLILLETAQDILQVRCAVLAVREAMAEVGREVPLQVQVTFEATGTMLVGTDEQAALAALESLPVDVVGMNCATGPDLMDSKVRYFAEHSTRFVSCLPNAGLPRNEGGRVVYDLTPEELAKWHLKFVAEYGVNAVGGCCGTGPEHIRKVAEAVKGLAPKPRPESFPPQVASLYQAVSLKQEASLFLVGERLNATGSKRFREMLFARDLEGILALAREQVEEGAHALDLSVAWTGRDELEDLRWLLPHLATALTVPVMVDSTSPEAMELALKYLPGRVLLNSANLEDGLERFDRVASLAKAHGAALVVLAIDEKGMAKTREEKVRVALRMYERLTEHHGLRPEDLLFDLLTFPITQGDEESRPLAKETLLAMEELRERLPGVGFVLGVSNVSFGLKPRARRVLNSVFLDEARKRGLTAAIVDAGKILPISQIPEEAYALALDLIYDRRKEGFDPLLAFMAYFEAHKEDPGKREDAFLALPLLERLKRRVVEGRKQGLEADLEEALKAGHKPLDLINGPLLAGMKEVGDLFGAGKMQLPFVLQAAEVMKRAVAYLEPHMEKKGEGKGTLVLATVKGDVHDIGKNLVDIILSNNGYRVVNLGIKVPIEEILKAVEAHKPHAVGMSGLLVKSTLVMKENLEYMRDRGYTLPVILGGAALTRSYVEELRAIYPNVYYAEDAFEGLRLMEELTGHAPPELTRKAPARPKREAPKVAPRARPVGEAPAVPRPPFFGVRVEEGLDLATIAHYVNKLALYRGQWGYSRKGLSREAWQALVEREAEPVFQRLLKEAMAEGWLEPKVLYGFFPVAREGEELLVFSPETGEVLERFRFPRQKGGGLSLVDYFRPRFAAPLGDEADWMPKEAFRAGARDVLGVQLVTMGEAPSRKAQALFASGAYQDYLFVHGFSVEMTEALAEYWHKRMRQMWGIAHQDATEIQKLFQQGYQGARYSFGYPACPDLADQAKLDRLMGFHRVGVRLTENFQLEPEHATSALVVHHPEARYFSVD,soluble
7,MVFKMMYSEAILDYANSKKFRGKLDDATVIEEGKNISCGDEITLYLKVEDGVVKDAKFEGMGCVISQASASLMLERIIGERVEEIFSLIEEAEKMSRGENFDEGKLKNVTLMSDIKNYPARVKCFILAWKTLKEALKKISRP,soluble
8,MVFSGPASPGLTLAPLRRGGIDPCYRVDAAGAIWRTSLMPSGPVTARITRAATDAADCQAWGEGADEFIDRLPALLGVDDDASDFAPAEPTIAKARRQVPHLRLGRTGRMLEALIPAIIEQRVYGLDAWRAWRALVTKFGTPAPGPAPDGMRVVPSAEVWRRIPSWEFHRANVDPGRARTIVMCAQRADSLERLTHERAAVTLRSLPGVGEWTAAETMQRVFGDADALSAGDYHLATLVGQALTGEPVDDAGMVELLEPMRPHRHRAVRLLEASGMFVYRRRGARQAIPKLRTL,not soluble
9,MVGLLVEDTIDDQGWNRKAYEGLLNIHSNLDVDVVLEEGVNSEQKAHRRIKELVDGGVNLIFGHGHAFAEYFSTIHNQYPDVHFVSFNGEVKGENITSLHFEGYAMGYFGGMVAASMSETHKVGVIAAFPWQPEVEGFVDGAKYMNESEAFVRYVGEWTDADKALELFQELQKEQVDVFYPAGDGYHVPVVEAIKDQGDFAIGYVGDQADLGGSTILTSTVQHVDDLYVLVAKRFQEGKLESGNLYYDFQDGVVSLGEFSSVVPDEVREQITDAISTYIQTGQFPHEEER,soluble
10,MVHSNGAITSTILKARHADVVRKTSLHHANDLTLIDLVLNVQRLLALPSDANFVLKYKDEEGDLVTLAEDSDLLLALHTSGATLDVTVVVDSRAREAVHDVQKQVEQIKLDVGKLLGALSALDVAQIAEQSNTSVANLSAPKQSHHDNIVFQKSFEAAPPSPVPSEKAELPATIQPSVHEQFNHRPAHVEEEIPLENHYAPPPHQQIPDDLNTSFSSQPPPPIEQFGAIPPPNATIPSFPTSNAASPPVQEFAPPPPQQQQQQFQAPPPPMASHSSISSTPVQQQGFAPPQQFGGPPPSGPPSEYGGYAPPQQQQQQFGAPPPQGAPQQGFGAPPQGPPQGGPPQGSFGAPPPQQFHAPSPQSFGGPPPPVSSAPGNFAPPPQSGPPGAFAPPPSAFGAPQGPGGPGGYGPPPPGGPGAPGSYGPPQGGPGGFGPPPPGGPGAYGPPPTGFPPVGAPPPGAAGAPGGNPFARGPSATGYRQSPYQQ,not soluble
11,MVIHQIKILQSVATSIVEGGRGVTGTPFPNQPDKPLKLYEFEGSPFSRRVREVLTLLNLDVEIYPCPKGGQKYRAIVKEKGGKLQFPFLIDENTGDQLYESQKIIHHLFKHYGKTGHTPEKYQHYPKIPVIGLIATLLNAARGVWVNKKIIHRAAPEQLLELWSFEASPYSRVVRDILTELEIPYVLHNVSKERWQDMGPAILRLKPGPYIPLAGGKRDKMLPMMQGKMQVPYLVDPNTGIHLFESAQIVAYLKKQYGEV,not soluble
12,MVIIMQFYKEENFKEMHGLRVPEDWEVVRIGDFIKYIKGKKPAVMVDEELEGYYPYLSTEYLRDGIASKFVKITNKEIIVNENDILLLWDGSNAGEIFLGKKGILSSTMVKLEQKNKIMDDLYLFYSLKLKESFLKSQTKGTGIPHVDKKIFENIKIPLPPLEEQKQIAKILSDFDNLIGTINKQIEVLNKAKKGMMKKLFTKGVFEHKSFKKSEIGEIPEDWEVVKLKEVVDIQSGKYFKYSEFCENGVKCLKIDNVGFGKIFWETVSFLPEDYLNKYPQLVLKSGDIVLALNRPIIGGKIKIGILKDIDEPAILYQRVGRFIFKSEKIDKQFLFYLLMSEYFKKELSKLLIGTDQPYIRTPVLLNIKIPLPHLEEQKAMAERLKSIDNLIEIKRKEKEQIEKAKKKIMNLLLTGKIRVKNLNF,soluble
13,MVINCAFIGFGKSTTRYHLPYVLNRKDSWHVAHIFRRHAKPEEQAPIYSHIHFTSDLDEVLNDPDVKLVVVCTHADSHFEYAKRALEAGKNVLVEKPFTPTLAQAKELFALAKSKGLTVTPYQNRRFDSCFLTAKKAIESGKLGEIVEVESHFDYYRPVAETKPGLPQDGAFYGLGVHTMDQIISLFGRPDHVAYDIRSLRNKANPDDTFEAQLFYGDLKAIVKTSHLVKIDYPKFIVHGKKGSFIKYGIDQQETSLKANIMPGEPGFAADDSVGVLEYVNDEGVTVREEMKPEMGDYGRVYDALYQTITHGAPNYVKESEVLTNLEILERGFEQASPSTVTLAKLEHHHHHH,soluble
14,MVINQTFLQNNVMDKCNDKRKRGERDWDCPAEKDICISDRRYQLCMKELTNLVNNTRTHSHNDITFLKLNLKRKLMYDAAVEGDLLLKKNNYQYNKEFCKDIRWGLGDFGDIIMGTNMEGIGYSQVVENNLRSIFGTDEKAKQDRKQWWNESKEHIWRAMMFSLRSRLKEKFVWICKKDVTLKVEPQIYRWIREWGRDYMSELPKEQGKLNEKCASKLYYNNMAICMLPLCHDACKSYDQWITRKKKQWDVLSTKFSSVKKTQKIGTENIATAYDILKQELNGFKEATFENEINKRDNLYNHLCPCVVEEARKNTQENVKNVGSGVESKAASSNPITE,soluble
15,MVIRPVERSDVSALMQLASKTGGGLTSLPANEATLSARIERAIKTWQGELPKSEQGYVFVLEDSETGTVAGICAIEVAVGLNDPWYNYRVGTLVHASKELNVYNALPTLFLSNDHTGSSELCTLFLDPDWRKEGNGYLLSKSRFMFMAAFRDKFNDKVVAEMRGVIDEHGYSPFWQSLGKRFFSMDFSRADFLCGTGQKAFIAELMPKHPIYTHFLSQEAQDVIGQVHPQTAPARAVLEKEGFRYRNYIDIFDGGPTLECDIDRVRAIRKSRLVEVAEGQPAQGDFPACLVANENYHHFRVVLARTDPATERLILTAAQLDALKCHAGDRVRLVRLCAEEKTA,not soluble
